For test [1], the target named is SARS-CoV-2 BQ.1.1 S glycoprotein (SARS-CoV-2 BQ.1.1). The test can be described thus: cell-based or functional assay.
Test [2] has as its target SARS-CoV-2 XBB.1.5 S glycoprotein (SARS-CoV-2 XBB.1.5). Nature of the test: cell-based or functional assay.
In test [3] the target is SARS-CoV-2 BA.5 S glycoprotein (SARS-CoV-2 BA.5). Nature of the test: cell-based or functional assay.
For a further test, the target named is SARS-CoV-2 BA.1 RBD (SARS-CoV-2 BA.1, UniProt P0DTC2 328-531). The test can be described thus: RBD binding affinity (SPR, see Example 5).
Test [4] addresses SARS-CoV-2 BQ.1.1 S glycoprotein (SARS-CoV-2 BQ.1.1). The test can be described thus: cell-based or functional assay. This is another data set of the same source.
The target is the same in test [5]. The test can be described thus: cell-based or functional assay. This is another data set of the same source.

Like-named read-outs stand apart in the source and are kept apart here.

B1: S2V29-v1.2 (antibody, V domains shown)
VH: EVQLVESGGSVVQPGRALRLSCAASGITFSSFGMYWVRQAPGKGLEWLGVIAYDGSNTYYADSVKGRFTISRDNSKNTLYLQMNSLRIEDTAVYYCAKDYYPLLSYYYGLDVWGQGTTVTVSS
VL: QSVLTQPRSVSGSPGQSVTISCTGTSSDVGAYNYVSWYQQHPGKAPKFMIYDVDQRPSGVPDRFSGSKSGNTASLIISGLQAEDEADYYCSSYAGSYIWVFGGGTQLTVL
On to B1, for which the “IC50” value came to 9 ng/mL in test [1], 5.2 ng/mL in test [2] and 2.6 ng/mL in test [3]. In the test with SARS-CoV-2 BA.1 RBD, this molecule displayed a Kd of 0.05 nM.

B2: S2V29-v37.2 (antibody, V domains shown)
VH: EVQLVESGGSVVQPGRALRLSCAASGITFSSFGMYWVRQAPGKGLEWLGYIAYDGSDTYYADSVKGRFTISRDNSKNTLYLQMNSLRIEDTAVYYCAKDYYPLLSYYYGLDVWGQGTTVTVSS
VL: QSVLTQPRSVSGSPGQSVTISCTGTSSDVGAYNYVSWYQQHPGKAPKFMIYDVDQRPSGVPDRFSGSKSGNTASLIISGLQAEDEADYYCSSYAGSYIWVFGGGTQLTVL
Regarding B2, the “FC IC50 par/IC50 Var” value in test [4] is 1.4 fold. Moreover, the half-inhibitory concentration (IC50) in test [4] came out at 5.6 ng/mL; in test [5], 5 ng/mL; in test [1] it was 5.6 ng/mL; in test [3] it was 2.1 ng/mL. Moreover, the “FC vs S2V29-v1.2” value amounted to 1.6 fold in test [1] and 1.2 fold in test [3]. The molecule further had a Kd with SARS-CoV-2 BA.1 RBD of 0.39 nM.

B3: S3L17 (antibody, V domains shown)
VH: EVQLVESGGGLVQPGGSLRLSCAASEIIVSSNYMNWVRQAPGKGLEWVSVIYAGGSTFYADSVRGRFTISRDNSKNTLYLQMNSLRPDDTAIYYCARDLGPWGMDVWGQGTTVTVSS
VL: DIQMTQSPSSLSASVGDRVAITCRASHGINNDLAWYQQKPGKVPKLLIYAASTLQSGVPSRFSGSGSGTDFTLTISSLQPEDVATYYCQHYSSDPRFTFGPGTKVDIK
B3 came in with a Kd in the test with SARS-CoV-2 BA.1 RBD of 0.08 nM.

As a reminder, the IC50 is the concentration needed to halve the response being measured. Higher therefore signals weaker potency. In general, Kd refers to the concentration at which binding is half-saturated.

Source of the values: US20260274928A1 (VIR BIOTECHNOLOGY, published 2026).
